According to patent publication US11427869B2, “T cell balance gene expression, compositions of matters and methods of use thereof” (THE BROAD INSTITUTE, INC., priority 2015, dated 2022):

Tested on: Th17 cells
Assay: qPCR of Cd5l expression in differentiated T cells
Assay type: cell-based, mouse
Conditions: naïve T cells differentiated with TGF-β1+IL-6 for 48h, expanded in IL-23 in fresh media, 72h
Procedure: FIG. 16A-16I. CD5L is a candidate regulator of Th17 cell functional states. (FIG. 16A-FIG. 16C) Single-cell RNA-seq analysis. (FIG. 16A) Cd5l expression of single-cells from in-vitro generated and in-vivo sorted Th17 cells (IL-17.GFP+) from mice at the peak of EAE. […] (FIG. 16D-FIG. 16F) Validation of CD5L expression in vitro. Naïve T cells (CD4+CD62L+CD44−CD25−) were sorted and differentiated as indicated and analyzed by qPCR for CD5L expression at 48h (D) and 72h (E) and by flow cytometry at 48h (F); (E) IL-23 or control was added at 48h in fresh media. (FIG. 16G-FIG. 16I) Validation of Cd5l expression in vivo. (G,H) IL-17A.GFP reporter mice were immunized to induce EAE. Cells were sorted from spleen (G) and CNS (H) at the peak of disease. Cd5l and Il17a expression are measured by qPCR. Figure shown is representative data of three technical replicates from two independent experiments. (I) Cells were sorted from the gut of naïve mice and the number of RNA transcripts measured by nanostring nCounter platform.
Next, Applicants explored whether CD5L expression is associated with less pathogenic Th17 cells in vivo. Applicants analyzed Th17 cells isolated from mice induced with EAE. […] Next, Applicants analyzed Th17 cells from mesenteric lymph nodes (mLN) and lamina propria (LP) of naïve mice, where Th17 cells contribute to tissue homeostasis and mucosal barrier function. […]

B1: IL-23: recombinant mouse IL-23 (R&D), 20 ng/ml (protein, UniProt Q9EQ14 22-196; P43432 23-335, looked up)
Interleukin-23 subunit alpha: VPRSSSPDWAQCQQLSRNLCMLAWNAHAPAGHMNLLREEEDEETKNNVPRIQCEDGCDPQGLKDNSQFCLQRIRQGLAFYKHLLDSDIFKGEPALLPDSPMEQLHTSLLGLSQLLQPEDHPRETQQMPSLSSSQQWQRPLLRSKILRSLQAFLAIAARVFAHGAATLTEPLVPTA
Interleukin-12 subunit beta: MWELEKDVYVVEVDWTPDAPGETVNLTCDTPEEDDITWTSDQRHGVIGSGKTLTITVKEFLDAGQYTCHKGGETLSHSHLLLHKKENGIWSTEILKNFKNKTFLKCEAPNYSGRFTCSWLVQRNMDLKFNIKSSSSSPDSRAVTCGMASLSAEKVTLDQRDYEKYSVSCQEDVTCPTAEETLPIELALEARQQNKYENYSTSFFIRDIIKPDPPKNLQMKPLKNSQVEVSWEYPDSWSTPHSYFSLKFFVRIQRKKEKMKETEEGCNQKGAFLVEKTSTEVQCKGGNVCVQAQDRYYNSSCSKWACVPCRVRS
  Cd5l expression (qPCR): suppressed
